Laboratory results as given in article PMC12723161.

Assays:
[1] = biological target: Chlamydomonas reinhardtii animal-like cryptochrome (CraCRY), wild type (Chlamydomonas reinhardtii); assay: SEC; dimer peak collected from SEC, kept in the dark, second round of SEC
[2] = biological target: Chlamydomonas reinhardtii animal-like cryptochrome (CraCRY), wild type (Chlamydomonas reinhardtii); assay: SEC; concentration series, blue light 4 min; HEPES pH 7.4, 150 mM NaCl; Superdex 200 Increase 10/300, room temperature, in darkness; dimer fraction from peak areas
[3] = biological target: GST-fused ROC15 (GARP), the active domain of Rhythm Of Clock 15; assay: GST pull-down, SDS-PAGE band intensity ratio; details: absence of reducing agents, read off a plot
[4] = biological target: CraCRY Y373E (Chlamydomonas reinhardtii); assay: SEC; time-lapse dimerization under blue light (450 nm, 100 W/m^2); 6 mg/mL in HEPES pH 7.4, 150 mM NaCl; Superdex 200 Increase 10/300, room temperature, in darkness; dimer fraction from peak areas
[5] = biological target: CraCRY Y373R (Chlamydomonas reinhardtii); assay: as above
[6] = lit (blue light), parent: est. 0.15

response ([3]; dark, parent: est. 0.03)	response [3, 6]	Substance	further results
		Chlamydomonas reinhardtii animal-like cryptochrome (CraCRY), wild type (natural protein)	stoichiometry N [1]: 2; dimer fraction (percent of elution peak area) [2]: 20%
0.045	0.85	Chlamydomonas reinhardtii animal-like cryptochrome (CraCRY), wild type Y373W	
0.05	0.58	Chlamydomonas reinhardtii animal-like cryptochrome (CraCRY), wild type Y373W; N395C	
		CraCRY Y373E (natural protein)	dimer fraction (percent of elution peak area) [4]: 50%
		CraCRY Y373R (natural protein)	dimer fraction (percent of elution peak area) [5]: 50%
